# US20260242478A1 (published 2026)
# Where no end group is shown, it is not given here.
# B1: Phage-1315 (peptide)
# peptide: YCAGHTTEYIVKCL
# notes: Peptide-87 library clone, tested as clonal phage (peptide fused to pIII of the bacteriophage)
# B2: Phage-1321 (peptide)
# peptide: YCDGHSTEYMWKCL
# notes: as for B1
# B3: Phage-1314 (peptide)
# peptide: YCEGHLDEYLQKCM
# notes: as for B1
# B4: Phage-1326 (peptide)
# peptide: YCDGHDEQYLMKCL
# notes: as for B1
# B5: Phage-1323 (peptide)
# peptide: YCAGHDAEYMQKCL
# notes: as for B1
# B6: Phage-1802 (peptide, not shown: large carriers)
# peptide: LHVYCVPEWMCAGF
# notes: Clonal phage supernatant; also called Peptide-272
# B7: Phage-1316 (peptide)
# peptide: YCEGHVPQYMGKCL
# notes: as for B1
# B8: Phage-1317 (peptide)
# peptide: YCDGHAAMYMSKCL
# notes: as for B1
# B9: Phage-1318 (peptide)
# peptide: YCEGHLGLYMKKCL
# notes: as for B1
# B10: Phage-1312 (peptide, not shown: large carriers)
# peptide: YCDGHLETYMQKCL
# modifications: cysteine pairing not given here; also: fused to phage pIII protein, pIII and linker sequence not given here
# notes: Tested as clonal phage supernatant
# B11: Phage-1325 (peptide)
# peptide: YCEGHAPVYMQKCL
# notes: as for B1
# B12: Phage-1310 (peptide, not shown: large carriers)
# peptide: YCEGHKKEYMLKCL
# modifications: cysteine pairing not given here; also: fused to phage pIII protein, pIII and linker sequence not given here
# notes: as for B10
# B13: Phage-1322 (peptide)
# peptide: YCEGHIKDYMTKCL
# notes: as for B1
# B14: Phage-1790 (peptide, not shown: large carriers)
# peptide: EPKWCVPRGLCNYD
# notes: Clonal phage supernatant; also called Peptide-240
# B15: Phage-1319 (peptide)
# peptide: YCAGHAQEYMRKCL
# notes: as for B1
# B16: Phage-1800 (peptide, not shown: large carriers)
# peptide: ESRLCVPAWMCAGF
# notes: Clonal phage supernatant; also called Peptide-270
# B17: Phage-1311 (peptide, not shown: large carriers)
# peptide: YCEGHVELYRQKCL
# modifications: cysteine pairing not given here; also: fused to phage pIII protein, pIII and linker sequence not given here
# notes: as for B10
# B18: Phage-1320 (peptide)
# peptide: YCAGHIPQYLNKCL
# notes: as for B1
# B19: Phage-1324 (peptide)
# peptide: YCEGHMQWYMAKCL
# notes: as for B1
# What was measured:
# [1] = molecular target: Anti-CD28 Fab (SEQ ID NOs: 696, 697); experiment: phage binding ELISA, clonal phage on biotinylated anti-CD28 Fab captured on neutravidin plates;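 note: crude clonal phage supernatants added to wells pretreated with CD28 antigen or blocking buffer only, bound phage detected by HRP-linked anti-M13 antibody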
# Target sequence in this assay (VH, as listed by the source, chain 1 of 2): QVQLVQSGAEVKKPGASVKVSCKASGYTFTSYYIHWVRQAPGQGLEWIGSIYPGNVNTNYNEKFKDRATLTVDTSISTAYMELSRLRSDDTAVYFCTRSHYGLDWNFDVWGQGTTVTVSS
# Target sequence in this assay (VL, as listed by the source, chain 2 of 2): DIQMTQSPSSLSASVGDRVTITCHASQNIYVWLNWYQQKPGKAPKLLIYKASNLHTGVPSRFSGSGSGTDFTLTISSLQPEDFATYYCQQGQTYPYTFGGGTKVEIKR
# Method: (§1) After panning, phage infected bacteria were plated out and colonies picked into 96 well blocks. Clonal phage was then amplified and separated from bacterial cells via centrifugation.
# (§2) Clonal phage were harvested as crude supematants and screened via standard ELISAs. […] Prior to the addition of clonal phage, wells were incubated with blocking buffer and CD28 antigen or blocking buffer alone. Without washing or aspirating, clonal phage supematants were then added to the wells and incubated for a short time. Wells were then washed followed by detection of bound phage using a horse radish conjugated anti-M13 antibody. Clonal phage of interest were then sent for sequence analysis.
# [2] = molecular target: Anti-CD28 Fab (SEQ ID NOs: 696, 697); experiment: phage binding ELISA on captured anti-CD28 Fab, wells pre-incubated with CD28 antigen as competitor;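 note: crude clonal phage supernatants added to wells preloaded with CD28 antigen, bound phage read by HRP-conjugated anti-M13 antibody, control wells got blocking buffer alone without CD28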
# Target sequence in this assay (VH, as listed by the source, chain 1 of 2): as the sequence (VH, as listed by the source, chain 1 of 2) above
# Target sequence in this assay (VL, as listed by the source, chain 2 of 2): as the sequence (VL, as listed by the source, chain 2 of 2) above
# Method: as §1, §2
# [3] = molecular target: T1, Anti-CD28 Fab (SEQ ID NOs: 696, 697); experiment: phage ELISA; biotinylated anti-CD28 Fab on neutravidin plate, clonal phage supernatant, anti-M13 HRP detection;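 for Anti-CD28 Fab signal (phage binding ELISA): crude supernatants of single phage clones picked after panning were screened for binding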;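 for Phage binding ELISA, Anti-CD28 Fab signal: before phage addition, wells were pretreated with either CD28 antigen in blocking buffer or only blocking buffer, and phage was added without an intervening wash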
# T1 construct: Biotinylated and captured on neutravidin coated plates in the phage ELISA
# T1 sequence (VH, as listed by the source, chain 1 of 2): as the sequence (VH, as listed by the source, chain 1 of 2) above
# T1 sequence (VL, as listed by the source, chain 2 of 2): as the sequence (VL, as listed by the source, chain 2 of 2) above
# Method: (§3) Clonal phage were harvested as crude supematants and screened via standard ELISAs. […] Prior to the addition of clonal phage, wells were incubated with blocking buffer and CD28 antigen or blocking buffer alone. Without washing or aspirating, clonal phage supematants were then added to the wells and incubated for a short time. Wells were then washed followed by detection of bound phage using a horse radish conjugated anti-M13 antibody.
# [4] = molecular target: T1, Anti-CD28 Fab (SEQ ID NOs: 696, 697); experiment: phage ELISA; biotinylated anti-CD28 Fab on neutravidin plate, wells pre-incubated with CD28 antigen as competitor, anti-M13 HRP detection
# Method: as §3
# [5] = molecular target: T2, Anti-PSMA Fab (SEQ ID NOs: 19, 20); experiment: phage binding ELISA; biotinylated PSMA Fab on neutravidin plate, clonal phage supernatant, anti-M13 HRP detection;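 note: wells were preincubated with blocking buffer either containing PSMA antigen or without it before crude phage supernatant was added, briefly incubated, then washed prior to detection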
# T2 construct: also called 006 PSMA Fab
# Method: (§4) Clonal phage were harvested as crude supernatants and screened via standard ELISAs. […] Prior to the addition of clonal phage. wells were incubated with blocking buffer and PSMA antigen or blocking buffer alone. Without washing or aspirating, clonal phage supernatants were then added to the wells and incubated for a short time. Wells were then washed followed by detection of bound phage using a horse radish conjugated anti-M13 antibody.
# [6] = molecular target: T2, Anti-PSMA Fab (SEQ ID NOs: 19, 20); experiment: phage binding ELISA; biotinylated PSMA Fab on neutravidin plate pre-incubated with PSMA antigen (competitor), anti-M13 HRP detection;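 note: competition ELISA where clonal phage supernatants were added to wells preincubated with PSMA antigen or with blocking buffer only as control, bound phage read via HRP-coupled anti-M13 antibody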
# Method: as §4
# [7] = molecular target: Anti-CD28 Fab (SEQ ID NOs: 696, 697); experiment: phage ELISA as above; wells pre-incubated with CD28 antigen as competitor
# Target sequence in this assay (VH, as listed by the source, chain 1 of 2): as the sequence (VH, as listed by the source, chain 1 of 2) above
# Target sequence in this assay (VL, as listed by the source, chain 2 of 2): as the sequence (VL, as listed by the source, chain 2 of 2) above
# Method: as §1, §2
# [8] = molecular target: Anti-CD28 Fab (SEQ ID NOs: 696, 697); experiment: phage ELISA; biotinylated anti-CD28 Fab on neutravidin plate, clonal phage supernatant, anti-M13 HRP detection;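 for Anti-CD28 Fab signal (phage binding ELISA): crude supernatants of single phage clones picked after panning were screened for binding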;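 for Phage binding ELISA, Anti-CD28 Fab signal: before phage addition, wells were pretreated with either CD28 antigen in blocking buffer or only blocking buffer, and phage was added without an intervening wash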
# Target sequence in this assay (VH, as listed by the source, chain 1 of 2): as the sequence (VH, as listed by the source, chain 1 of 2) above
# Target sequence in this assay (VL, as listed by the source, chain 2 of 2): as the sequence (VL, as listed by the source, chain 2 of 2) above
Binder,Anti-CD28 Fab signal (phage binding ELISA) [1],Anti-CD28 Fab signal in the presence of CD28 (phage binding ELISA) [2],"Phage binding ELISA, Anti-CD28 Fab signal [3]","Phage binding ELISA, Anti-CD28 Fab signal in the presence of CD28 [4]","Anti-PSMA Fab (SEQ ID NOs: 19, 20) signal [5]",Anti-PSMA Fab signal in the presence of PSMA [6],further results
B1,0.5,0.05,–,–,–,–,–
B2,0.49,0.06,–,–,–,–,–
SCSAGALWKWPVCF [Phage-1563],–,–,1.45,0.07,–,–,–
TCAAGANWHWPWCF [Phage-1561],–,–,1.46,0.15,–,–,–
"FTNYCVPSWMCTGF (peptide, not shown: large carriers, Clonal phage supernatant) [Phage-1797]",–,–,–,–,2.42,0.129,–
B3,0.51,0.08,–,–,–,–,–
"VEKVCKPVWMCVGF (peptide, not shown: large carriers, Clonal phage supernatant) [Phage-1798]",–,–,–,–,2.41,0.156,–
"EEPLCRPVWMCEGF (peptide, not shown: large carriers, Clonal phage supernatant) [Phage-1799]",–,–,–,–,2.41,0.117,–
B4,0.44,0.07,–,–,–,–,–
WCGVGMDWRWPECL [Phage-1569],–,–,1.44,0.16,–,–,–
"AEVKCIPQWMCQGF (peptide, not shown: large carriers, Clonal phage supernatant) [Phage-1795]",–,–,–,–,2.43,0.0852,–
B5,0.46,0.06,–,–,–,–,–
LCAAGATYPWPICL [Phage-1562],–,–,1.46,0.08,–,–,–
B6,–,–,–,–,2.38,0.109,–
B7,0.5,0.08,–,–,–,–,–
B8,0.5,0.07,–,–,–,–,–
B9,0.49,0.06,–,–,–,–,–
B10,–,–,–,–,–,–,Anti-CD28 Fab signal in the presence of CD28 (phage binding ELISA) [7]: 0.08; Anti-CD28 Fab signal (phage binding ELISA) [8]: 0.53
"EDILCKPKWMCEGF (peptide, not shown: large carriers, Clonal phage supernatant) [Phage-1801]",–,–,–,–,2.4,0.109,–
TCSAGATYMWPACF [Phage-1567],–,–,1.44,0.1,–,–,–
TCSAGATYAWPACF [Phage-1568],–,–,1.44,0.08,–,–,–

Binder,Anti-CD28 Fab signal (phage binding ELISA) [1],Anti-CD28 Fab signal in the presence of CD28 (phage binding ELISA) [2],"Phage binding ELISA, Anti-CD28 Fab signal [3]","Phage binding ELISA, Anti-CD28 Fab signal in the presence of CD28 [4]","Anti-PSMA Fab (SEQ ID NOs: 19, 20) signal [5]",Anti-PSMA Fab signal in the presence of PSMA [6],further results
B11,0.44,0.08,–,–,–,–,–
WCDQFFHYKWPLCL [Phage-1573],–,–,1.42,0.07,–,–,–
B12,–,–,–,–,–,–,Anti-CD28 Fab signal in the presence of CD28 (phage binding ELISA) [7]: 0.08; Anti-CD28 Fab signal (phage binding ELISA) [8]: 0.56
TCSAGFSYKWPWCW [Phage-1564],–,–,1.45,0.06,–,–,–
SCAAGATYVWPMCF [Phage-1574],–,–,1.42,0.07,–,–,–
TCSAGATYTWPSCF [Phage-1572],–,–,1.42,0.06,–,–,–
B13,0.47,0.08,–,–,–,–,–
"AVKACIPEWMCIGF (peptide, not shown: large carriers, Clonal phage supernatant) [Phage-1793]",–,–,–,–,2.44,0.106,–
B14,–,–,–,–,1.14,0.0587,–
"YFVQCRPAWMCEGF (peptide, not shown: large carriers, Clonal phage supernatant) [Phage-1791]",–,–,–,–,2.51,0.339,–
B15,0.49,0.07,–,–,–,–,–
B16,–,–,–,–,2.41,0.103,–
"VQIQCRPAWMCLGF (peptide, not shown: large carriers, Clonal phage supernatant) [Phage-1794]",–,–,–,–,2.44,0.127,–
B17,–,–,–,–,–,–,Anti-CD28 Fab signal in the presence of CD28 (phage binding ELISA) [7]: 0.06; Anti-CD28 Fab signal (phage binding ELISA) [8]: 0.56
B18,0.49,0.07,–,–,–,–,–
TCEDGFHFSWPECF [Phage-1570],–,–,1.44,0.07,–,–,–
"IVPLCKPAWMCKLF (peptide, not shown: large carriers, Clonal phage supernatant) [Phage-1792]",–,–,–,–,2.48,0.221,–
B19,0.45,0.09,–,–,–,–,–
SCSAGAMYQWPLCF [Phage-1565],–,–,1.44,0.09,–,–,–
"TAHHCKPAWMCTGF (peptide, not shown: large carriers, Clonal phage supernatant) [Phage-1796]",–,–,–,–,2.42,0.103,–
TCAAGAHYSWPFCM [Phage-1575],–,–,1.42,0.07,–,–,–
